According to US20230012273A1 (Boehringer Ingelheim, published 2023):
Blank lines part the entries; values can stand above or below the binder they belong to.

Legend:
[1] = molecular target: T1, full-length human SIRPγ (NP_061026.2) on cells (human, UniProt Q9P1W8 29-387); test: flow cytometry, primary human CD3+ T cells; endogenous SIRPγ on primary human CD3+ T cells
T1 construct: on CHO and Expi-CHO cells; endogenous on primary human CD3+ T cells; also called γ WT
Protocol: (§1) Antibody binding to primary human T cells expressing endogenous SIRPγ is evaluated by flow cytometry. Human peripheral blood mononuclear cells (PBMCs) are blocked with donkey IgG and incubated on ice with increasing concentrations of antibody for 60 minutes, washed and stained with AF647-conjugated donkey F(ab′)₂ anti-human IgG secondary reagent. […] Cells are washed, fixed, and analyzed by flow cytometry. Median fluorescent intensity of CD3+ gated population is determined and used as a measure of antibody binding.
T1 sequence (Q9P1W8 29-387): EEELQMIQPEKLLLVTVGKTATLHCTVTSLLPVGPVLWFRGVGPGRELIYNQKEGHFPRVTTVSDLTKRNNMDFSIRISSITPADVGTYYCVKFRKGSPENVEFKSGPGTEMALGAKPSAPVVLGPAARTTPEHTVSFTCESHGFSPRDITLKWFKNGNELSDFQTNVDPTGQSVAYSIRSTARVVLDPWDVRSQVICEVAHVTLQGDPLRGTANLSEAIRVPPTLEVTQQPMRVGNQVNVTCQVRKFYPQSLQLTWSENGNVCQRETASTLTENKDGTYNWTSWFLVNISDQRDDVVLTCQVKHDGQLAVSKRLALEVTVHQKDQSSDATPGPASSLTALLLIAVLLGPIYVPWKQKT

[2] = molecular target: T2, full-length human SIRPγ (NP_061026.2) on cells (human, UniProt Q9P1W8 29-387); test: flow cytometry, primary CD3+ T cells
T2 construct: also called CHO-hSIRPγ; γ WT
Protocol: as §1
T2 sequence (Q9P1W8 29-387): as above

[3] = molecular target: T3, full-length human SIRPβ1 D→H on Expi-CHO cells (human, UniProt O00241 30-398); test: flow cytometry, Expi-CHO cells
T3 construct: the entry already carries the change (PDDV to PDHV)
T3 sequence (O00241 30-398 D130H): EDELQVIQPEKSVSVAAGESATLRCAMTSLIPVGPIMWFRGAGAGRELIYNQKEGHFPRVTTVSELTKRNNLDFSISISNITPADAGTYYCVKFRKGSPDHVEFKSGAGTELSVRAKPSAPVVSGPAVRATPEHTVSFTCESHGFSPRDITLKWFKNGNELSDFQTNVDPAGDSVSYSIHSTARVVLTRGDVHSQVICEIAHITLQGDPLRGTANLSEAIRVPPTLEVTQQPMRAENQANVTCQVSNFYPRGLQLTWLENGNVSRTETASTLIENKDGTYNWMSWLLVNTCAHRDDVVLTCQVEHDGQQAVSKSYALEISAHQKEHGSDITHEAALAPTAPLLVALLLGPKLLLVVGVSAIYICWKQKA
Protocol: These cells are blocked with donkey IgG and incubated on ice with increasing concentrations of antibodies for 60 minutes, washed and stained with AF647-conjugated donkey F(ab′)₂ anti-human IgG antibodies. Stained cells are washed, fixed, and analyzed by flow cytometry. Median fluorescent intensity is determined and used as a measure of antibody binding.

[4] = molecular target: T4, full-length cynomolgus SIRPα (XP_015313155) on CHO cells, clone P3HD10 (cynomolgus monkey, UniProt A0A2K5VYQ9 31-507); test: flow cytometry, CHO cells
T4 construct: whole, on cells; also called XP_015313155 Clone P3HD10
T4 sequence: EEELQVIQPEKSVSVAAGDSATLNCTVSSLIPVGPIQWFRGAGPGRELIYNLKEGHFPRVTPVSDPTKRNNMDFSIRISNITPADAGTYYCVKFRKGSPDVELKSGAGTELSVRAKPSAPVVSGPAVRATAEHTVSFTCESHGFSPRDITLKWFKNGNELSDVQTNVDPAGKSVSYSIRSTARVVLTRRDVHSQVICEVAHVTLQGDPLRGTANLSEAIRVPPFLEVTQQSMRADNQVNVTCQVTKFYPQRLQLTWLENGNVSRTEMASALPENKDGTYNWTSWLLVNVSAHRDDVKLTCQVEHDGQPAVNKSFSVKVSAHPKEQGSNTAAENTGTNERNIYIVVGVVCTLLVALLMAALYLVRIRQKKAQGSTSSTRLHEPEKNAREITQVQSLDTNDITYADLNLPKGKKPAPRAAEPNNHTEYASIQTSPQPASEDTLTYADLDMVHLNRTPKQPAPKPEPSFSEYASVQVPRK
Protocol: Antibody binding to cells expressing cynomolgus (cyno) SIRPα was evaluated by flow cytometry. CHO-K1 cells expressing full-length cyno SIRPα; derived from protein sequence accession numbers (A) EGM-02252; (B) XP_015313155; or (C) NP_001271679, are blocked with donkey IgG and incubated on ice with increasing concentrations of antibodies for 60 minutes, washed and stained with AF647-conjugated donkey F(ab′)₂ anti-human IgG secondary reagent. Cells are washed, fixed, and analyzed by flow cytometry. Median fluorescent intensity is determined and used as a measure of antibody binding.

- binding result [1]: no binding
B1: Antibody A (antibody, human IgG1, kappa, L234A L235A)
heavy: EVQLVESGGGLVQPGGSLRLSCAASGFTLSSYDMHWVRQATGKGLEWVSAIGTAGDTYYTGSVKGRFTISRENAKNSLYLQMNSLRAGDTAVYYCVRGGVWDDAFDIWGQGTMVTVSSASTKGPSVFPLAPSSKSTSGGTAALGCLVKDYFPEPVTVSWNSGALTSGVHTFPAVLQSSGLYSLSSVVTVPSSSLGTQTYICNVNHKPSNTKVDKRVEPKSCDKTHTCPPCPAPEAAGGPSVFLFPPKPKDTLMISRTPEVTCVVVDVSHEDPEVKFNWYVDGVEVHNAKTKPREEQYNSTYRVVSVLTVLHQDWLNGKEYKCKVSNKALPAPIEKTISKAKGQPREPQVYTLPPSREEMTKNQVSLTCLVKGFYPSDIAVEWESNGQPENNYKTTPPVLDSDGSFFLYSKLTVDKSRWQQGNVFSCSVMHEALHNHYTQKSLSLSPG
light: DIQMTQSPSSLSASVGDRVTITCRASQDINNYLAWFQQKPGKAPKSLIYTASSLHSGVPSKFSGSGSGTDFTLTISSLQPEDFATYYCQQYVSYPYTFGQGTKLEIKRTVAAPSVFIFPPSDEQLKSGTASVVCLLNNFYPREAKVQWKVDNALQSGNSQESVTEQDSKDSTYSLSSTLTLSKADYEKHKVYACEVTHQGLSSPVTKSFNRGEC

- EC50 [2]: 0.03 nM
- EC50 [3]: 0.01 nM
- EC50 [4]: 0.5 nM
B2: Anti-SIRPα antibody KWAR23 (antibody, V domains shown)
VH: EVQLQQSGAELVKPGASVKLSCTASGFNIKDYYIHWVQQRTEQGLEWIGRIDPEDGETKYAPKFQDKATITADTSSNTAYLHLSSLTSEDTAVYYCARWGAYWGQGTLVTVSS
VL: QIVLTQSPAIMSASPGEKVTLTCSASSSVSSSYLYWYQQKPGSSPKLWIYSTSNLASGVPARFSGSGSGTSYSLTISSMEAEDAASYFCHQWSSYPRTFGAGTKLELK
